Assays:
Smc3^QQ R1008I K1004C = target: T1, Smc3^QQ R1008I K1004C (S. cerevisiae, UniProt P47037 1-1230, K112Q | K113Q | K1004C | R1008I); experiment: cross-linking; in vivo BMOE cross-link of cysteine pairs in yeast cells arrested in late G1 by non-degradable Sic1(9m); Scc1-PK immunoprecipitated, western blot, band intensities quantified; conditions: partners not purified
T1 construct: Smc3, S. cerevisiae; also called smc3-QQ K1004C with R1008I; source: S. cerevisiae W303, late G1 arrested cells, whole-cell extract
T1 sequence (looked up): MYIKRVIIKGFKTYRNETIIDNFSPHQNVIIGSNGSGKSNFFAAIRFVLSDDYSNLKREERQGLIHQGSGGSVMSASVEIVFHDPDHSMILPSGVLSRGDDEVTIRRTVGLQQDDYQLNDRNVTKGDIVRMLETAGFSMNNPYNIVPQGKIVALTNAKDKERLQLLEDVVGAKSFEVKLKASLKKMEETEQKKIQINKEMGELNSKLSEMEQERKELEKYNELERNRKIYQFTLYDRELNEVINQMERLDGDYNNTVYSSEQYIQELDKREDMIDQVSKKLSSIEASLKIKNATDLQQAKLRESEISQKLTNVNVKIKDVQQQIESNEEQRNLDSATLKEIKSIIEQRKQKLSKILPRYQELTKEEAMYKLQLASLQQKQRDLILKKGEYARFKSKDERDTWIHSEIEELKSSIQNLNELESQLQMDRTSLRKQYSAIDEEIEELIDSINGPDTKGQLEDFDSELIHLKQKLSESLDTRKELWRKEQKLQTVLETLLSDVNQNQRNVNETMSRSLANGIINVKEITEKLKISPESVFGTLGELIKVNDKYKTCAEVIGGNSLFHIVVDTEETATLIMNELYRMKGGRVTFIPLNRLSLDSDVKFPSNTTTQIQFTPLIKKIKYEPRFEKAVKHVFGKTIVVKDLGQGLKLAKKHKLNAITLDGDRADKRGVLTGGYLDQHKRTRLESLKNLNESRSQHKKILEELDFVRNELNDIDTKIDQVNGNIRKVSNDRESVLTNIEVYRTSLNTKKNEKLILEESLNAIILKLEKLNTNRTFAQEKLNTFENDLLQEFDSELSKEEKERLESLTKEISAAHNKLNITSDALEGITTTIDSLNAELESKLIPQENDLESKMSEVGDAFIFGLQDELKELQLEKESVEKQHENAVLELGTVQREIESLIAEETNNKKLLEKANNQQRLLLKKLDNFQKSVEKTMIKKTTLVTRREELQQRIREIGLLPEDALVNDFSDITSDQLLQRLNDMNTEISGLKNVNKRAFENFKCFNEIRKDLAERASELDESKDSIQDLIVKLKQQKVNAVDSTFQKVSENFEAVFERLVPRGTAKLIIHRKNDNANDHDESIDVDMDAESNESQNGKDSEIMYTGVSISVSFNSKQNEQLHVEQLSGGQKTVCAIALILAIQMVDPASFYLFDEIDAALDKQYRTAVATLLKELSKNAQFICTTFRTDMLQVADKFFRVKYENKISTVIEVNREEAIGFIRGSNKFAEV

[1] = target: T2, Smc3^QQ W483R R1008I Q67C (S. cerevisiae, UniProt P47037 1-1230, Q67C | K112Q | K113Q | W483R | R1008I); experiment: as above; conditions: partners not purified
T2 construct: Smc3, S. cerevisiae; also called smc3-QQ Q67C with R1008I and W483R; source: S. cerevisiae W303, late G1 arrested cells, whole-cell extract
T2 sequence (looked up): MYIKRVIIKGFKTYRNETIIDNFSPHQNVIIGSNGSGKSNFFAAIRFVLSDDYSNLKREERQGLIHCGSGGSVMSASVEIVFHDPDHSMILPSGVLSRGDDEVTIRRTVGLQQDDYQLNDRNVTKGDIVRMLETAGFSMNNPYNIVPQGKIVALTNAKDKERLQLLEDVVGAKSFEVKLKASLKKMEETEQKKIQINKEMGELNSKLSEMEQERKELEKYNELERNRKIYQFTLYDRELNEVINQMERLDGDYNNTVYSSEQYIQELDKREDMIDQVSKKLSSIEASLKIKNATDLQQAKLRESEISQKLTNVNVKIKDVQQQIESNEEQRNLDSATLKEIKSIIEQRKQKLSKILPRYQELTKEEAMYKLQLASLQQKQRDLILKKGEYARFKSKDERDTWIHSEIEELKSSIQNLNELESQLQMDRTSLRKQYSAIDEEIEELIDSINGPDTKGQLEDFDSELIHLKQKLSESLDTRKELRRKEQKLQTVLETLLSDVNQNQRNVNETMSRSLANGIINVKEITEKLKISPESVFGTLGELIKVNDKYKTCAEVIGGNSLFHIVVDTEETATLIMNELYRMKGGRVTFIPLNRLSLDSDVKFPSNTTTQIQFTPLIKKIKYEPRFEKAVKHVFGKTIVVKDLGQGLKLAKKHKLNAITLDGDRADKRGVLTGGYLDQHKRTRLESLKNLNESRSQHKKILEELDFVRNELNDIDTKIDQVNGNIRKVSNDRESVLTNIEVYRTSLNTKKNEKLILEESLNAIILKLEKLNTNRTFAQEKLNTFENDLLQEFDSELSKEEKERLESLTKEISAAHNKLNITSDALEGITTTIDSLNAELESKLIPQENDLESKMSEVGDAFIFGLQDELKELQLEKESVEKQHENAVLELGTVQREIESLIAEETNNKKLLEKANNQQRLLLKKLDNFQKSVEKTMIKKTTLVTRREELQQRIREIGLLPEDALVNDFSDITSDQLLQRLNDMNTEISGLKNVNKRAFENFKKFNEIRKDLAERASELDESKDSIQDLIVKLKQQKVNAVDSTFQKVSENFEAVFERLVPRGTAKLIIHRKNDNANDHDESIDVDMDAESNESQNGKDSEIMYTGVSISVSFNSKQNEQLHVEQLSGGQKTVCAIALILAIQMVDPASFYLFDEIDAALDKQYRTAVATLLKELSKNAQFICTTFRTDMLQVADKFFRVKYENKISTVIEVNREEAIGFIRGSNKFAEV

Binder	crosslink relative to wild type (Smc3^QQ R1008I K1004C) [%]	crosslinking efficiency relative to wild type [1] [%]
Scc2 D369C (natural protein, S. cerevisiae, UniProt Q04002 1-1493, looked up, Scc2, S. cerevisiae; source: S. cerevisiae W303, in vivo, whole-cell extract) MSYPGKDKNIPGRIIEALEDLPLSYLVPKDGLAALVNAPMRVSLPFDKTIFTSADDGRDVNINVLGTANSTTSSIKNEAEKERLVFKRPSNFTSSANSVDYVPTNFLEGLSPLAQSVLSTHKGLNDSINIEKKSEIVSRPEAKHKLESVTSNAGNLSFNDNSSNKKTKTSTGVTMTQANLAEQYLNDLKNILDIVGFDQNSAEIGNIEYWLQLPNKKFVLTTNCLTKLQMTIKNITDNPQLSNSIEITWLLRLLDVMVCNIKFSKSSLKMGLDDSMLRYIALLSTIVLFNIFLLGKNDSNLHRESYIMEPVNFLSDLIESLKILTIEYGSLKIEFDTFQEALELLPKYIRNGPFLDDNVTAKLVYIFSCLLMNNDIEATTNIQFQSFWDNVKRISSDILVSLFGSFDQQRGFIIEELLSHIEKLPTKRIQKKLRKVGNQNIYITDFTFTLMSMLENINCYSFCNQMKDIAPENIDLLKNEYKKQEEFLFNIVEHINDTILERFFKNPSALRYVIDNFVQDLLLLISSPQWPVTEKILSSLLKRLLSVYSPSMQVSANIETICLQLIGNIGSTIFDIKCSTRDHEDNNLIKMINYPETLPHFFKSFEECIAYNETIKCRRSATRFLWNLRLGTILILEEYTKDAKEQIITVDNELKKILEQIKDGGLGPELENREADFSTIKLDYFSILHAFELLNLYDPYLKLILSLLAKDKIKLRSTAIKCLSMLASKDKVILSNPMVKETIHRRLNDSSASVKDAILDLVSINSSYFEFYQQINNNYNDDSIMVRKHVLRINEKMYDETNDIVTKVYVIARILMKIEDEEDNIIDMARLILLNRWILKVHEVLDQPEKLKEISSSVLLVMSRVAIMNEKCSQLFDLFLNFYLLNKEAHSKEAYDKITHVLTILTDFLVQKIVELNSDDTNEKNSIVDKQNFLNLLAKFADSTVSFLTKDHITALYPYMVSDEKSDFHYYILQVFRCTFEKLANFKQKFLYDLETTLLSRLPKMNVREIDEAMPLIWSVATHRHDTARVAKACSSCLSHLHPYINKANNEEAAIVVDGKLQRLIYLSTGFARFCFPKPSNDKIAFLQEGETLYEHITKCLLVLSKDKITHVIRRVAVKNLTKLCGNHPKLFNSRHVLHLLDKEFQSDQLDIKLVILESLYDLFLLEERKSVRNTGVNSTLSSNSILKKKLLKTNRVEFANDGVCSALATRFLDNILQLCLLRDLKNSLVAIRLLKLILKFGYTNPSHSIPTVIALFASTSQYIRHVAYELLEDLFEKYETLVFSSLSRGVTKAIHYSIHTDEKYYYKHDHFLSLLEKLCGTGKKNGPKFFKVLKRIMQSYLDDITDLTSTNSSVQKSIFVLCTNISNITFVSQYDLVSLLKTIDLTTDRLKEVIMDEIGDNVSSLSVSEEKLSGIILIQLSLQDLGTYLLHLYGLRDDVLLLDIVEESELKNKQLPAKKPDISKFSAQLENIEQYSSNGKLLTYFRKHVKDT	~70	–
Scc2 T1175C (natural protein, S. cerevisiae, UniProt Q04002 1-1493, looked up, Scc2, S. cerevisiae; source: S. cerevisiae W303, in vivo, whole-cell extract) MSYPGKDKNIPGRIIEALEDLPLSYLVPKDGLAALVNAPMRVSLPFDKTIFTSADDGRDVNINVLGTANSTTSSIKNEAEKERLVFKRPSNFTSSANSVDYVPTNFLEGLSPLAQSVLSTHKGLNDSINIEKKSEIVSRPEAKHKLESVTSNAGNLSFNDNSSNKKTKTSTGVTMTQANLAEQYLNDLKNILDIVGFDQNSAEIGNIEYWLQLPNKKFVLTTNCLTKLQMTIKNITDNPQLSNSIEITWLLRLLDVMVCNIKFSKSSLKMGLDDSMLRYIALLSTIVLFNIFLLGKNDSNLHRESYIMEPVNFLSDLIESLKILTIEYGSLKIEFDTFQEALELLPKYIRNGPFLDDNVTAKLVYIFSDLLMNNDIEATTNIQFQSFWDNVKRISSDILVSLFGSFDQQRGFIIEELLSHIEKLPTKRIQKKLRKVGNQNIYITDFTFTLMSMLENINCYSFCNQMKDIAPENIDLLKNEYKKQEEFLFNIVEHINDTILERFFKNPSALRYVIDNFVQDLLLLISSPQWPVTEKILSSLLKRLLSVYSPSMQVSANIETICLQLIGNIGSTIFDIKCSTRDHEDNNLIKMINYPETLPHFFKSFEECIAYNETIKCRRSATRFLWNLRLGTILILEEYTKDAKEQIITVDNELKKILEQIKDGGLGPELENREADFSTIKLDYFSILHAFELLNLYDPYLKLILSLLAKDKIKLRSTAIKCLSMLASKDKVILSNPMVKETIHRRLNDSSASVKDAILDLVSINSSYFEFYQQINNNYNDDSIMVRKHVLRINEKMYDETNDIVTKVYVIARILMKIEDEEDNIIDMARLILLNRWILKVHEVLDQPEKLKEISSSVLLVMSRVAIMNEKCSQLFDLFLNFYLLNKEAHSKEAYDKITHVLTILTDFLVQKIVELNSDDTNEKNSIVDKQNFLNLLAKFADSTVSFLTKDHITALYPYMVSDEKSDFHYYILQVFRCTFEKLANFKQKFLYDLETTLLSRLPKMNVREIDEAMPLIWSVATHRHDTARVAKACSSCLSHLHPYINKANNEEAAIVVDGKLQRLIYLSTGFARFCFPKPSNDKIAFLQEGETLYEHITKCLLVLSKDKITHVIRRVAVKNLTKLCGNHPKLFNSRHVLHLLDKEFQSDQLDIKLVILESLYDLFLLEERKSVRNCGVNSTLSSNSILKKKLLKTNRVEFANDGVCSALATRFLDNILQLCLLRDLKNSLVAIRLLKLILKFGYTNPSHSIPTVIALFASTSQYIRHVAYELLEDLFEKYETLVFSSLSRGVTKAIHYSIHTDEKYYYKHDHFLSLLEKLCGTGKKNGPKFFKVLKRIMQSYLDDITDLTSTNSSVQKSIFVLCTNISNITFVSQYDLVSLLKTIDLTTDRLKEVIMDEIGDNVSSLSVSEEKLSGIILIQLSLQDLGTYLLHLYGLRDDVLLLDIVEESELKNKQLPAKKPDISKFSAQLENIEQYSSNGKLLTYFRKHVKDT	–	~70
